T1: human CD22-ECD-His protein (human, UniProt P20273 20-687)
T1 construct: Made in house in HEK293E; also called hCD22-ECD-His; recombinant human CD22-ECD His protein; not shown: His tag
T1 sequence: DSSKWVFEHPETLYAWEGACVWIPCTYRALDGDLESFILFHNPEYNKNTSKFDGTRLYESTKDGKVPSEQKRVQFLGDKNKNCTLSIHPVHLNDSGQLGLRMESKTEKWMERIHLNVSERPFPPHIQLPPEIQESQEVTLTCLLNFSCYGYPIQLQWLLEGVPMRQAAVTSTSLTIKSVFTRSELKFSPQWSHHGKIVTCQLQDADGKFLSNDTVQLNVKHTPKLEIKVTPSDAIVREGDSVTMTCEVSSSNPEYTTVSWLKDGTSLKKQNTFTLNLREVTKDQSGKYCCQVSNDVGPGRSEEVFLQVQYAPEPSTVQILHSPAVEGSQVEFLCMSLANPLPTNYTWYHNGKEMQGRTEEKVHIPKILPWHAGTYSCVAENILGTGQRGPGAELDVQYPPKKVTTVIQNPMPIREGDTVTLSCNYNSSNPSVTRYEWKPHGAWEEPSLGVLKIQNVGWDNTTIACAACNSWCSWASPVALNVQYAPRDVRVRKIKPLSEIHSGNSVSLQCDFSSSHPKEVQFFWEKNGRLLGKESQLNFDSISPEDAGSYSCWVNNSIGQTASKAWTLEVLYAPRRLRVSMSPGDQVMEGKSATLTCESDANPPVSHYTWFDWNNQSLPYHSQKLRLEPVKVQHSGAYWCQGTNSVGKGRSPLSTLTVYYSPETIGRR

T2: human CD22 domain1-4-His (human, UniProt P20273 20-425)
T2 construct: also called hCD22 domain1-4-His; not shown: His tag
T2 sequence: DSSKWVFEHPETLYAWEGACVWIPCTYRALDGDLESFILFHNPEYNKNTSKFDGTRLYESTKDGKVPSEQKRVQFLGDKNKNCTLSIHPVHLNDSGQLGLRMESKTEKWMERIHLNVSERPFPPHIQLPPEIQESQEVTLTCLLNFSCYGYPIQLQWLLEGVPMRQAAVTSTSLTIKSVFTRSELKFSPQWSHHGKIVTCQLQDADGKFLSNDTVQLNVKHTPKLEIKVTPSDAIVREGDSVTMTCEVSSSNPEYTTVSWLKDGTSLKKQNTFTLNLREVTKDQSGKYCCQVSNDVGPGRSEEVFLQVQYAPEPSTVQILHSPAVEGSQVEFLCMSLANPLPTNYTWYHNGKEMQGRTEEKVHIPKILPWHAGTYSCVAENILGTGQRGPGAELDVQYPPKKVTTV

T3: murine CD22 protein (ACROBiosystems, SI2-M52Ha) (murine, UniProt P35329 22-708)
T3 construct: extracellular domain; also called murine CD22-ECD; murine CD22-ECD-His
T3 sequence (looked up): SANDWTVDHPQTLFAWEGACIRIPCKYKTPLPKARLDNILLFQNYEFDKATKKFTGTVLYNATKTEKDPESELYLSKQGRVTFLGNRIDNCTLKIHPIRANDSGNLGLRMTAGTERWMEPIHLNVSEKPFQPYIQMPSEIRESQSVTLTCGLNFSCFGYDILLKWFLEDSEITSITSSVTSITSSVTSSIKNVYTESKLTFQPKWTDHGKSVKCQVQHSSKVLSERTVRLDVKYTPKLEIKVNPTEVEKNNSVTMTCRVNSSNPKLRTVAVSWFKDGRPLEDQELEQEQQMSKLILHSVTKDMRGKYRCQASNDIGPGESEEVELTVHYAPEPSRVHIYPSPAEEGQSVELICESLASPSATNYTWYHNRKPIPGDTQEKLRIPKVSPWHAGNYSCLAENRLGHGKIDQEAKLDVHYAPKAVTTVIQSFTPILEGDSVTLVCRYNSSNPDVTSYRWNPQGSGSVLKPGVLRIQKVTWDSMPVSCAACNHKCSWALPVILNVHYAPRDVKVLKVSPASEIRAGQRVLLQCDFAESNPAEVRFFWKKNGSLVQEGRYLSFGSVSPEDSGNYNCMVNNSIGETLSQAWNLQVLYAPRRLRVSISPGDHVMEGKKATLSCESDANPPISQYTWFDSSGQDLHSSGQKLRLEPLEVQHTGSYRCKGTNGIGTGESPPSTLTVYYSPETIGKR


Legend:
[1] = biological target: T1, human CD22-ECD-His protein; experiment: ELISA, Ab 100.00 nM
Procedure, shortened: (§1)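 Coat: CD22-ECD-His 2 μg/mL PBS, 4 °C o/n. Block PBS/2% BSA 2 h RT. Ab 2 h 37 °C; HRP 2° 2 h 37 °C; TMB 30 min RT, 1.0 N HCl stop.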

[2] = biological target: T1, human CD22-ECD-His protein; experiment: ELISA, Ab 0.001 nM
Procedure, shortened: as §1

[3] = biological target: T2, human CD22 domain1-4-His; experiment: ELISA, human CD22 domain1-4-His coated
[4] = biological target: T1, human CD22-ECD-His protein; experiment: ELISA, Ab 0.01 nM
Procedure, shortened: as §1

[5] = biological target: T1, human CD22-ECD-His protein; experiment: ELISA, human CD22-ECD-His coated
Procedure, shortened: as §1

[6] = biological target: T1, human CD22-ECD-His protein; experiment: ELISA, Ab 0.10 nM
Procedure, shortened: as §1

[7] = biological target: T3, murine CD22 protein (ACROBiosystems, …); experiment: ELISA, murine CD22-ECD-His coated
Procedure, shortened: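 First, CD22 (2 μg/mL, PBS) was coated at 4° C overnight. Second, wells were blocked with PBS containing 2% BSA for 2 h at room temperature. Third, antibody and then HRP secondary were each incubated 2 h at 37° C. Finally, TMB colour was stopped with HCl.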

Row | Binder | OD450 [1] [OD450] | OD450 [2] [OD450] | EC50 (read off the curve) [3] [nM] | OD450 [4] [OD450] | EC50 (read off the curve) [5] [nM] | OD450 [6] [OD450] | binding result [7] | binding result [3]
1 | F2.343.16 (antibody, human IgG1, lambda, V domains shown, Human-murine chimeric IgG1, lambda) VH: QVQLKQSGPGLVQPSQSLSITCTVSGFSLTGYGVQWVRQSPGKGLEWLGVIWGGGGTDYNAAFISRLNIIKDNSKSQVFFKMNSLQADDTAIYYCARYSKYGHFDVWGTGTAVTVSS VL: QAVVTQESALTTSPGETVTLTCRSSTGAVTTSNYANWVQEKPDHLFTGLIGGTYNRVPGVPARFSGSLIGDKAALTITGAQTEDEAIYFCALWYSNHFWVFGGGTKLTVLG | 1.94 | 0.43 | ~0.06 | 1.29 | ~0.06 | 1.93 | no binding (tested: 100 nM) | 
2 | F1.60.9 (antibody, human IgG1, kappa, V domains shown, Human-murine chimeric IgG1, kappa) VH: QVQLKESGPGLVAPSQSLSITCTVSGLSLNNYGVSWVRQPPGKGLEWLGVIWGDGSTNYHSALISRLSISKDNSKSQVFLKLNSLHTDDTATYYCAINWGDYWGQGTTLIVSS VL: DIKMTQSPSSMNASLGERVTITCKASQDINSYLSWFQQKPGKSPKILIYRANRLIDGVPSRFSGSGSGQDYSLTISSLEYEDMGIYYCLQYGVFPLTFGAGTKLELKR | 2.82 | 0.47 |  | 1.75 | ~0.05 | 2.59 | no binding (tested: 100 nM) | no binding (tested: 100 nM)

Reference: US20240084003A1 (SIMCERE ZAIMING PHARMACEUTICAL, published 2024)
